# In the supplement of paper PMC7125110:
# ± gives the standard error. Variants at the floor of the assay were thinned out.
# B1: glmS ribozyme (parent)
# chain: AUAAAAGCGCCAGAACUACAGAAAUGUAGUUGACGAGGAGGAGGUUUAUCGAAUUUUCGGCGGAUGCCUCCAAA
# What was measured:
# Details in all cases: with glucosamine-6-phosphate
# glucosamine-6-phosphate [1] = variants of: B1; test: self-cleavage kobs at 40 uM GlcN6P; higher = faster cleavage; RNA array
# In short: (§1)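 Tiles bearing barcoded ribozyme variants, transcribed in situ by E. coli RNA polymerase on sequenced MiSeq chips, were imaged over ~14 h at 37 °C using a hybridised Cy3 probe. Glucosamine-6-phosphate was supplied at 40 μM to 10 mM in HEPES/KCl/Mg(OAc)2 buffer. kobs came from one- or two-exponential decay fits to normalised per-tile medians, and weighted Michaelis–Menten fits then provided kcat and KM.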
# glucosamine-6-phosphate [2] = variants of: B1; test: self-cleavage kobs at 160 uM GlcN6P; higher = faster cleavage; RNA array
# In short: as §1
# glucosamine-6-phosphate [3] = variants of: B1; test: self-cleavage kobs at 640 uM GlcN6P; higher = faster cleavage; RNA array
# In short: as §1
# glucosamine-6-phosphate [4] = variants of: B1; test: self-cleavage kobs at 10000 uM GlcN6P; higher = faster cleavage; RNA array
# In short: as §1
# glucosamine-6-phosphate [5] = variants of: B1; test: self-cleavage kobs at 2500 uM GlcN6P; higher = faster cleavage; RNA array
# In short: as §1
Variant,self-cleavage kobs at 40 uM GlcN6P (glucosamine-6-phosphate [1]) [s⁻¹],self-cleavage kobs at 160 uM GlcN6P (glucosamine-6-phosphate [2]) [s⁻¹],self-cleavage kobs at 640 uM GlcN6P (glucosamine-6-phosphate [3]) [s⁻¹],self-cleavage kobs at 10000 uM GlcN6P (glucosamine-6-phosphate [4]) [s⁻¹],self-cleavage kobs at 2500 uM GlcN6P (glucosamine-6-phosphate [5]) [s⁻¹]
G29U U56A,4.68e-05 ± 1.4e-05,9.32e-05 ± 2e-05,0.000211 ± 7e-05,0.00285 ± 0.00045,
C11G G40A U45G,< 1e-05,,< 1e-05,< 1e-05,< 1e-05
U31C C70U,0.000152 ± 1.5e-05,0.000343 ± 4.1e-05,0.000731 ± 6.7e-05,,0.00284 ± 0.00074
U47A C70U,0.000803 ± 0.00012,0.00118 ± 0.00023,0.0018 ± 0.00029,0.00993 ± 0.0023,0.00221 ± 0.00048
G62A G66U,< 1e-05,,< 1e-05,< 1e-05,< 1e-05
G40C C68U,< 1e-05,,,1.72e-05 ± 7.9e-06,
C8U U47C,< 1e-05,< 1e-05,< 1e-05,< 1e-05,< 1e-05
G35C C67A,< 1e-05,< 1e-05,< 1e-05,< 1e-05,
G13A A14U C50G C68U,8.53e-05 ± 1.7e-05,,0.000187 ± 4.7e-05,0.000103 ± 1.5e-05,0.000455 ± 0.00016
C11U C50G C68G,6.75e-05 ± 1.4e-05,,0.000123 ± 1.8e-05,,0.000141 ± 2.8e-05
C11U C16U,6.96e-05 ± 2e-05,8.34e-05 ± 2.3e-05,0.000352 ± 9.4e-05,0.00196 ± 0.0007,0.00134 ± 0.00058
G29C U56A,4.47e-05 ± 1.2e-05,2.63e-05 ± 1.3e-05,0.000209 ± 3.6e-05,0.00136 ± 0.00016,0.000439 ± 8.7e-05
A6U C16U G38A,< 1e-05,,< 1e-05,,< 1e-05
G26U U46G,0.000306 ± 7.3e-05,,,0.00888 ± 0.0026,
A6C G29U C34U U47G C58G C70G,0.000135 ± 5e-05,,0.000686 ± 0.0002,0.000144 ± 3.9e-05,
C11G G40A G43A,< 1e-05,,,< 1e-05,
C34G U45A,< 1e-05,< 1e-05,< 1e-05,< 1e-05,< 1e-05
G13U U31A A39C C68U U69A,< 1e-05,< 1e-05,< 1e-05,,
A6G G35A A39C G62C U65G C67A,< 1e-05,,,,
C34A G59U,< 1e-05,< 1e-05,< 1e-05,< 1e-05,< 1e-05
A6U G35C U54A,< 1e-05,,,,
G35U C61U U65G,< 1e-05,,,,

Variant,self-cleavage kobs at 40 uM GlcN6P (glucosamine-6-phosphate [1]) [s⁻¹],self-cleavage kobs at 160 uM GlcN6P (glucosamine-6-phosphate [2]) [s⁻¹],self-cleavage kobs at 640 uM GlcN6P (glucosamine-6-phosphate [3]) [s⁻¹],self-cleavage kobs at 10000 uM GlcN6P (glucosamine-6-phosphate [4]) [s⁻¹],self-cleavage kobs at 2500 uM GlcN6P (glucosamine-6-phosphate [5]) [s⁻¹]
A39U C68U C71U,0.000103 ± 3e-05,,,,
A6U A33U A36G G38C U46G C61U,< 1e-05,,,,
U47G G60U,< 1e-05,< 1e-05,,,< 1e-05
U69G,0.000371 ± 0.00012,5.87e-05 ± 2.4e-06,0.000488 ± 0.00012,0.000467 ± 7.8e-05,0.00011 ± 4.1e-05
G41U G60U A64U,< 1e-05,< 1e-05,,< 1e-05,
A15U C61G,< 1e-05,,,< 1e-05,
G7C A15G,< 1e-05,,,< 1e-05,
G60C C67U,< 1e-05,,,< 1e-05,
G37U G41C C67A,< 1e-05,,,,
C8A U47G,< 1e-05,,,,
A39C U65G C70G,< 1e-05,< 1e-05,< 1e-05,< 1e-05,
C34U U57C C58U,< 1e-05,,,< 1e-05,< 1e-05
A12C C16U G41U,6.93e-05 ± 2e-05,,0.000163 ± 3.3e-05,0.000649 ± 0.00015,0.000447 ± 9.6e-05
C11U U31C U47C A52U,< 1e-05,,,< 1e-05,
A6G G35A C67U U69A,< 1e-05,< 1e-05,< 1e-05,< 1e-05,< 1e-05
A14U G43C U69A,< 1e-05,,,< 1e-05,
A33C G41C U57G,< 1e-05,,,,< 1e-05
G7C A52U,< 1e-05,< 1e-05,< 1e-05,< 1e-05,< 1e-05
G9U A33C U69G,< 1e-05,,,,
C10U G13A C68A,< 1e-05,,,,
U45G G59C,< 1e-05,< 1e-05,< 1e-05,,< 1e-05
A6G U49G,< 1e-05,,,,< 1e-05
